Columns and labels:
Assay in all cases: cell-based or functional assay
[1] = molecular target: S protein of Pangolin-GD on S-pseudotyped VSV (Pangolin-GD (clade 1b sarbecovirus))
[2] = molecular target: S protein of authentic SARS-CoV-2 G614 virus (SARS-CoV-2) (UniProt P0DTC2)
[3] = molecular target: S protein of RaTG13 on S-pseudotyped VSV (RaTG13 (clade 1b sarbecovirus))

DXP-604 IgG (antibody)
IC50, S-pseudotyped VSV neutralization assay [1]: 0.05 nM
IC50, microneutralization assay with authentic virus [2]: 0.3 nM
IC50, S-pseudotyped VSV neutralization assay [3]: 0.01 nM

From patent US20240209065A1
